Results published in paper PMC11570452, “MOTS-c modulates skeletal muscle function by directly binding and activating CK2” (iScience, 2024).
Blank lines part the entries; values can stand above or below the binder they belong to.

Target: T1, CK2α (recombinant, GenScript) (UniProt P68400 1-391)
T1 construct: CK2α, catalytic alpha subunit of casein kinase II; No catalogue number, species or construct is printed; also called CK2α subunit; CK2 alpha; source: bought: GenScript
Assay: SPR; Biacore T200; MOTS-c or K14Q MOTS-c (10 μg/mL, 10 mM sodium acetate pH 5.0) immobilised on CM5 chip (278 RU and 193 RU); first 70 nM CK2α or CK2β, then CK2α at 2.5, 5.0, 10 and 20 nM flowed at 30 μL/min in 0.01 M HEPES, 0.15 M NaCl, 0.3 mM EDTA, 0.05% tween
Conditions: both partners purified

T1 sequence (P68400 whole entry): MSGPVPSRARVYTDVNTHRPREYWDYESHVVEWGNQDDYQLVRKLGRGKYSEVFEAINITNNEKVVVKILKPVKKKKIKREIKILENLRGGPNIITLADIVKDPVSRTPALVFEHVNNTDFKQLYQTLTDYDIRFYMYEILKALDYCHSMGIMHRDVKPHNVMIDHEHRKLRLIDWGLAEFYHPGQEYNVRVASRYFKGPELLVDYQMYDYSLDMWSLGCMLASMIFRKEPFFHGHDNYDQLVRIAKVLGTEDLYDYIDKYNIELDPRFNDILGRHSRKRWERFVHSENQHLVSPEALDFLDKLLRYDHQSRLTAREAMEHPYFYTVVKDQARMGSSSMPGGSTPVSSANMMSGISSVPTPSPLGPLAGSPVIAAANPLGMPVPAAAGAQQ

- Kd: 1 nM
B1: MOTS-c (mitochondrial open reading frame of the 12S ribosomal RNA type-c), wild type (peptide)
peptide: MRWQEMGYIFYPRKLR
notes: MOTS-c, human, 16-amino acid microprotein encoded in the mitochondrial 12S rRNA region; also called WT MOTS-c; synthetic MOTS-c; source: synthetic peptide, bought: GenScript; for the co-IP injected into mice (7.5 mg/kg) and found in tissue lysate

- Kd: 16.2 nM
B2: K14Q MOTS-c (naturally occurring MOTS-c variant) (peptide, UniProt A0A0C5B5G6 1-16, looked up)
peptide: MRWQEMGYIFYPRQLR
notes: MOTS-c, human, natural variant m.1382A>C causing K14Q; source: synthetic peptide, bought: GenScript
